Laboratory results reported in PMC9102066, “Cloning and Functional Characterization of Dog OCT1 and OCT2: Another Step in Exploring Species Differences in Organic Cation Transporters” (International Journal of Molecular Sciences, 2022).

Experiments:
[1] = substrate: CC(Cc1ccc(O)cc1)NCC(O)c1cc(O)cc(O)c1; test: cells, lysate or membranes named; details: HEK293, 2 min, Michaelis–Menten fit, pH 7.4
[2] = substrate: CCCC[N+]1(C)[C@@H]2C[C@@H](OC(=O)[C@H](CO)c3ccccc3)C[C@H]1[C@@H]1O[C@@H]12; test: Uptake in HEK293 cells stably overexpressing human OCT1; type: in vitro ADME; details: other: OCT1-mediated uptake, HEK293, 2 min, Michaelis–Menten fit; pH 7.4
Procedure: (§1) The total uptake is shown for the overexpressing and control cells (left hand side). OCT1-mediated uptake (right hand side) was calculated by subtracting the uptake of control cells (pcDNA5) from the uptake of OCT1-overexpressing cells. The means and standard errors of the means are shown for at least three independent experiments.
(§2) At 48 h prior to the experiment, 6 × 10^5 cells were seeded per well in 12-well plates pre-coated with poly-D-lysine.
(§3) Cellular uptake experiments were performed at 37 °C and pH 7.4 using Hanks’ Buffered Salt Solution (HBSS) supplemented with 10 mM HEPES (referred to as HBSS+ in the following). Cells were washed with 1 mL pre-warmed (37 °C) HBSS+ and uptake was initiated by adding 400 µL of pre-warmed HBSS+ containing the substrate. Uptake was allowed for exactly 2 min and stopped by adding 2 mL ice-cold HBSS+. Cells were washed twice with 2 mL ice-cold HBSS+ then lysed with 80% acetonitrile supplemented with internal standard. The intracellularly accumulated substrate concentrations were measured using LC-MS/MS as described in the following and normalized to the amount of total protein in the samples as measured using the bicinchoninic acid assay [49].
(§4) Intracellular substrate concentrations were quantified using LC-MS/MS. […] The pellet was reconstituted with 200 µL 0.1% formic acid and between 5 and 10 µL was injected into the LC-MS/MS system (Table S2).
(§5) An API4000 QTRAP tandem mass spectrometer with ESI interface (AB SCIEX, Darmstadt, Germany) coupled to a Shimadzu Nexera X2 UHPLC system with LC 30AD pumps and SiL 30AC autosampler (Shimadzu, Duisburg, Germany) was used for analysis.
(§6) Intrinsic clearance CLint was calculated by dividing vmax by KM for each experiment. Kinetic parameters were compared between OCT1 orthologs using an ANOVA followed by Tukey’s honestly significant difference post hoc comparisons in SPSS Statistics version 28 (SPSS Inc., IBM, Chicago, IL, USA).

[3] = substrate: O=C(O[C@H]1C[C@H]2CC[C@@H](C1)[N+]21CCCC1)C(O)(c1ccccc1)c1ccccc1; test: as above; type: in vitro ADME; details: other: OCT1-mediated uptake, HEK293, 2 min, Michaelis–Menten fit; pH 7.4
Procedure: as §1, §2, §3, §4, §5, §6

[4] = substrate: CCCC[N+]1(C)[C@@H]2C[C@@H](OC(=O)[C@H](CO)c3ccccc3)C[C@H]1[C@@H]1O[C@@H]12; test: Uptake in HEK293 cells stably overexpressing human OCT2; type: in vitro ADME; details: other: OCT2-mediated uptake, HEK293, 2 min, Michaelis–Menten fit; pH 7.4
Procedure: (§7) The total uptake is shown for the overexpressing and control cells (left hand side). OCT2-mediated uptake (right hand side) was calculated by subtracting the uptake of control cells (pcDNA5) from the uptake of OCT2-overexpressing cells. The means and standard errors of the means are shown for at least three independent experiments.
(§8) Cells were cultured in Dulbecco’s Modified Eagle’s Medium (DMEM) supplemented with 10% FBS, 100 U/mL penicillin, and 100 µg/mL streptomycin at 37 °C and 5% CO2. Cells were passaged twice a week.
as §2, §3, §4, §5
(§9) Intrinsic clearance CLint was calculated by dividing vmax by KM for each experiment.

[5] = substrate: O=C(O[C@H]1C[C@H]2CC[C@@H](C1)[N+]21CCCC1)C(O)(c1ccccc1)c1ccccc1; test: as above; type: in vitro ADME; details: other: OCT2-mediated uptake, HEK293, 2 min, Michaelis–Menten fit; pH 7.4
Procedure: as §7, §8, §2, §3, §4, §5, §9

[6] = substrate: CCCC[N+]1(C)[C@@H]2C[C@@H](OC(=O)[C@H](CO)c3ccccc3)C[C@H]1[C@@H]1O[C@@H]12; test: Uptake in HEK293 cells stably overexpressing mouse OCT1; type: in vitro ADME; details: other: OCT1-mediated uptake, HEK293, 2 min, Michaelis–Menten fit; pH 7.4
Procedure: as §1, §2, §3, §4, §5, §6

[7] = substrate: CN(C)C(=N)N=C(N)N; test: as above; type: in vitro ADME; details: other: OCT1-mediated uptake, HEK293, 2 min, Michaelis–Menten fit; pH 7.4
Procedure: as §1, §2, §3, §4, §5, §6

[8] = substrate: O=C(O[C@H]1C[C@H]2CC[C@@H](C1)[N+]21CCCC1)C(O)(c1ccccc1)c1ccccc1; test: as above; type: in vitro ADME; details: other: OCT1-mediated uptake, HEK293, 2 min, Michaelis–Menten fit; pH 7.4
Procedure: as §1, §2, §3, §4, §5, §6

B1: human OCT1 (Homo sapiens) (protein)
chain: MPTVDDILEQVGESGWFQKQAFLILCLLSAAFAPICVGIVFLGFTPDHHCQSPGVAELSQRCGWSPAEELNYTVPGLGPAGEAFLGQCRRYEVDWNQSALSCVDPLASLATNRSHLPLGPCQDGWVYDTPGSSIVTEFNLVCADSWKLDLFQSCLNAGFLFGSLGVGYFADRFGRKLCLLGTVLVNAVSGVLMAFSPNYMSMLLFRLLQGLVSKGNWMAGYTLITEFVGSGSRRTVAIMYQMAFTVGLVALTGLAYALPHWRWLQLAVSLPTFLFLLYYWCVPESPRWLLSQKRNTEAIKIMDHIAQKNGKLPPADLKMLSLEEDVTEKLSPSFADLFRTPRLRKRTFILMYLWFTDSVLYQGLILHMGATSGNLYLDFLYSALVEIPGAFIALITIDRVGRIYPMAMSNLLAGAACLVMIFISPDLHWLNIIIMCVGRMGITIAIQMICLVNAELYPTFVRNLGVMVCSSLCDIGGIITPFIVFRLREVWQALPLILFAVLGLLAAGVTLLLPETKGVALPETMKDAENLGRKAKPKENTIYLKVQTSEPSGT
notes: expressed in transfected cells; host or cells: HEK293 (Flp-In system)
Km ([1]; other: OCT1-mediated uptake): 1.19 ± 0.09 µM | Km [2]: 15.0 ± 1.67 µM | Vmax [2]: 0.00125 µmol/min/mg | Vmax/Km [2]: 84.4 µL/min/mg | Km [3]: 13.3 ± 1.58 µM | Vmax [3]: 0.0015 µmol/min/mg | Vmax/Km [3]: 117 µL/min/mg

B2: human OCT2 (Homo sapiens) (protein)
chain: MPTTVDDVLEHGGEFHFFQKQMFFLLALLSATFAPIYVGIVFLGFTPDHRCRSPGVAELSLRCGWSPAEELNYTVPGPGPAGEASPRQCRRYEVDWNQSTFDCVDPLASLDTNRSRLPLGPCRDGWVYETPGSSIVTEFNLVCANSWMLDLFQSSVNVGFFIGSMSIGYIADRFGRKLCLLTTVLINAAAGVLMAISPTYTWMLIFRLIQGLVSKAGWLIGYILITEFVGRRYRRTVGIFYQVAYTVGLLVLAGVAYALPHWRWLQFTVSLPNFFFLLYYWCIPESPRWLISQNKNAEAMRIIKHIAKKNGKSLPASLQRLRLEEETGKKLNPSFLDLVRTPQIRKHTMILMYNWFTSSVLYQGLIMHMGLAGDNIYLDFFYSALVEFPAAFMIILTIDRIGRRYPWAASNMVAGAACLASVFIPGDLQWLKIIISCLGRMGITMAYEIVCLVNAELYPTFIRNLGVHICSSMCDIGGIITPFLVYRLTNIWLELPLMVFGVLGLVAGGLVLLLPETKGKALPETIEEAENMQRPRKNKEKMIYLQVQKLDIPLN
notes: as for B1
Km ([1]; other: OCT2-mediated uptake): 8.81 ± 0.55 µM | Km [4]: 7.62 ± 0.85 µM | Vmax [4]: 0.000616 µmol/min/mg | Vmax/Km [4]: 81.6 µL/min/mg | Km [5]: 0.49 ± 0.15 µM | Vmax [5]: 0.000119 µmol/min/mg | Vmax/Km [5]: 278 µL/min/mg

B3: mouse OCT1 (Mus musculus) (protein)
chain: MPTVDDVLEHVGEFGWFQKQAFLLLCLISASLAPIYVGIVFLGFTPDHHCRSPGVAELSQRCGWSPAEELNYTVPGLGSAGEASFLSQCMKYEVDWNQSTLDCVDPLSSLAANRSHLPLSPCEHGWVYDTPGSSIVTEFNLVCGDAWKVDLFQSCVNLGFFLGSLVVGYIADRFGRKLCLLVTTLVTSLSGVLTAVAPDYTSMLLFRLLQGMVSKGSWVSGYTLITEFVGSGYRRTTAILYQVAFTVGLVGLAGVAYAIPDWRWLQLAVSLPTFLFLLYYWFVPESPRWLLSQKRTTQAVRIMEQIAQKNRKVPPADLKMMCLEEDASERRSPSFADLFRTPSLRKHTLILMYLWFSCAVLYQGLIMHVGATGANLYLDFFYSSLVEFPAAFIILVTIDRIGRIYPIAASNLVAGAACLLMIFIPHELHWLNVTLACLGRMGATIVLQMVCLVNAELYPTFIRNLGMMVCSALCDLGGIFTPFMVFRLMEVWQALPLILFGVLGLSAGAVTLLLPETKGVALPETIEEAENLGRRKSKAKENTIYLQVQTGKSPHT
notes: as for B1
Km [6]: 6.60 ± 1.13 µM | Vmax [6]: 0.000778 µmol/min/mg | Vmax/Km [6]: 131 µL/min/mg | Km [7]: 298 ± 46.9 µM | Vmax [7]: 0.0109 ± 0.00125 µmol/min/mg | Vmax/Km [7]: 38.7 µL/min/mg | Km [8]: 1.92 ± 0.85 µM | Vmax [8]: 0.000255 µmol/min/mg | Vmax/Km [8]: 180 µL/min/mg | Km ([1]; other: OCT1-mediated uptake): 10.7 ± 1.09 µM
